Changes are numbered by the printed parent chain.

What is called Kd is the equilibrium constant for the complex coming apart. A higher Kd goes with a looser complex.

Assay [1] addresses T1, Human BMP1 CD+CUB1 truncated antigen (human, UniProt P13497 121-434, limits assumed).
T1 construct: domain: CD+CUB1
T1 sequence (looked up): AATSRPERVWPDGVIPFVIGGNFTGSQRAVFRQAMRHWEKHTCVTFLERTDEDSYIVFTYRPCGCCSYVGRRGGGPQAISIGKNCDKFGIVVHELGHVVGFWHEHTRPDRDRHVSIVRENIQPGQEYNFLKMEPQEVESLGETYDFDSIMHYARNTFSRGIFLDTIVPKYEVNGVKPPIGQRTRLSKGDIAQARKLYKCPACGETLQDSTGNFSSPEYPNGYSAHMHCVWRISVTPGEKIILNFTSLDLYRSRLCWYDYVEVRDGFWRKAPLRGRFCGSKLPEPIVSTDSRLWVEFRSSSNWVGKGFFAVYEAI
The assay is described as follows: SPR, mAb captured on protein A, HBS-EP. On the procedure: The 16 lead panel antibodies expressed in HEK cells were evaluated for binding to a truncated version of human BMP containing the catalytic domain and truncated domain (Human BMP1 CD+CUB1 truncated antigen) by SPR using BIACORE T200. HBS-EP+ buffer was used and the experiment run at 25° C. Protein A was immobilised to a CM5 sensor chip via amine coupling. The lead panel antibodies were captured onto protein A surface. Human BMP1 CD+CUB1 was then passed over the captured antibodies at various concentrations.

For assay [2], the target named is T2, Human BMP1-1 (human, UniProt P13497-2 121-730, limits assumed).
T2 sequence (looked up): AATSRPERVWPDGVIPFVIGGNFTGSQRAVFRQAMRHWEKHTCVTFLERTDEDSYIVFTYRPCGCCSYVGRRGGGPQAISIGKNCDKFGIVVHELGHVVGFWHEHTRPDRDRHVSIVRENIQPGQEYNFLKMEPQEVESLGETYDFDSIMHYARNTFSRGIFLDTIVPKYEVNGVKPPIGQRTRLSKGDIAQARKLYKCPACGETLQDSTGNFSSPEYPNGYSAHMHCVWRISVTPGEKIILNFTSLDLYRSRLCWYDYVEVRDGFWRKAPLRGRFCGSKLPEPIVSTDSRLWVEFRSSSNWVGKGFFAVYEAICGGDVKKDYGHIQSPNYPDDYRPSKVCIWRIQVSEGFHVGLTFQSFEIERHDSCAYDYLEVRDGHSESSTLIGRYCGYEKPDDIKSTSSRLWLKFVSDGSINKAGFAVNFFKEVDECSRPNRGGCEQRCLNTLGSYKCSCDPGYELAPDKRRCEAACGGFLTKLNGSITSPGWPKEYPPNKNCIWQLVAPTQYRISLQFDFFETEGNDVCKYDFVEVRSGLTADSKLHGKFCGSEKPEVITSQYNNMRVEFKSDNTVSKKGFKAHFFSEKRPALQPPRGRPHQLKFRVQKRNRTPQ
The assay is described as follows: cell-based or functional assay.

Assay [3] has as its target T3, Mouse TLL1 (mouse, UniProt Q62381 148-1013, limits assumed).
T3 sequence (looked up): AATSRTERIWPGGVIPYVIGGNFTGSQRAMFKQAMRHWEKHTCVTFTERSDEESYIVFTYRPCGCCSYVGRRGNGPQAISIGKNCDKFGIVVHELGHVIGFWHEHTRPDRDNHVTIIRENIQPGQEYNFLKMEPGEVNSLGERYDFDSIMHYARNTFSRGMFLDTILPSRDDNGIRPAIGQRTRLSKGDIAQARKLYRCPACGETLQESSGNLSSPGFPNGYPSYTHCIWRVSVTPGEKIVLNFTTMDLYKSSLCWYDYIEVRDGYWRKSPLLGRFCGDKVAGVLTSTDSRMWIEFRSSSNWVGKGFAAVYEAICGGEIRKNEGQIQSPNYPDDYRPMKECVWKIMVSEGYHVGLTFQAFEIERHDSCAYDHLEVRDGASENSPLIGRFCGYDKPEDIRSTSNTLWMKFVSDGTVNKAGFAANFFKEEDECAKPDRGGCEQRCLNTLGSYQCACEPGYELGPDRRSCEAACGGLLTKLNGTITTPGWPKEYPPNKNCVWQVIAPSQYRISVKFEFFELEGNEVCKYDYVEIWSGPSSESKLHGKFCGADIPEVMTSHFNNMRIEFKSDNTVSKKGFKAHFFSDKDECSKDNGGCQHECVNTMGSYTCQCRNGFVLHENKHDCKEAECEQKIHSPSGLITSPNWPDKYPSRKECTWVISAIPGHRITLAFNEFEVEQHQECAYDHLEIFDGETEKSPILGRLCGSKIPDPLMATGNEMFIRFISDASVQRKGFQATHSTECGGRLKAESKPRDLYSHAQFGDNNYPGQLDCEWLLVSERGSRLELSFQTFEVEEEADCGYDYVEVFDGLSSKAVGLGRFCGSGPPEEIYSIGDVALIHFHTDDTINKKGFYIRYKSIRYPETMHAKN
Nature of the assay: cell-based or functional assay.

B1: 13Y039-4B06-4373 (antibody, human IgG1, kappa, V domains shown)
VH: QVQLVQSGAEVKKPGASVKVSCKASGYTFRSYYMNWVRQAPGQGLEWMGIINPSSGETSYAQKFQGRVTMTRDTSTSTVYMELSSLRSEDTAVYYCARDTGELDGMNWYFDLWGRGTLVTVSS
VL: EIVLTQSPATLSLSPGERATLSCRASQSVSSYLAWYQQKPGQAPRLLIYDASNRATGIPARFSGSGSGTDFTLTISSLEPEDFAVYYCQQSDSWPPTFGGGTKVEIKR
notes: Fully human IgG1 LAGA, kappa; HEK expressed
The molecule B1 gave a Kd in assay [1] of 3.3 nM. Also, in assay [2], the “IC50, FRET enzyme activity, 62.5 pM huBMP1” value was 90 pM. Further, in assay [3], the “IC50, FRET enzyme activity, 800 pM biotinylated mTLL-1” value was 0.13 nM.

B2: 13Y039-4B06-4376 (antibody, human IgG1, kappa, V domains shown)
VH: B1 VH with R30M, S31G, I50W, S59N, T76I, V79A, S85R, E89D
VL: B1 VL
notes: as for B1
In the case of B2, in assay [1], the Kd came out at 3.7 nM. Also, in assay [2], the “IC50, FRET enzyme activity, 62.5 pM huBMP1” value came to 50 pM. In addition, the “IC50, FRET enzyme activity, 800 pM biotinylated mTLL-1” value in assay [3] turned out to be 0.16 nM.
